Source: the DeepSol protein solubility set

Assay: soluble on expression in E. coli; label from the status in PepcDB or PDB records

For “MGSDKIHHHHHHMALSERLSRFLARKGITYQPLETEPVANLDAAVLASGKPQHDFIKATLLIDINGVVMVVHRFDSTLDMDAVHQFTGRRLQPLTARQTSRLFGDCDAGFVPPIGAAWELPVLVDEDVVTAESVIFSGGTDHSLVEMDGRAFRLAQAGARQGHLVIRGQGGEDREALTLEDVADKLQKLYRLPPMPALALRILRLTANTEATAKELAELIEFDPSMTAQIMRYARSALFNYPGQINSVQEAVTRVLGFDRVAHIALGIASVRAFDVPRGGMLGMDNFWRHSLYCAFLCQNLAAYSGRDKGLAYLCGLLHNFGLLLVGHLFPSEFEELNALREINPEASMHSLEQEVFGHSERQDILAVGHGAIGGILHRLWQLPEAVIKAAGMHQHIGYHGEHEEYVQMVQLANAILKERGIGDELNPDDLPALVESLGLRADVLERVQSDMDQVASDLDVLASSLAS”, which “soluble on expression in E. coli” value is on record?
The value was “not soluble”.

Which “soluble on expression in E. coli” value does the source give for “MAGRKKTTACKLFVLDTNVLLHDPTCLYRFEEHDVFIPIITLEELDTHKKGMSEVARNARQASRFLDDIISGNELNISEGIPLKHASRDAASGKLILQTQAINGTLPSSLPMGKADNQILGIVMALKSHYQGRAVILVSKDINMRIKARALGLEAEDYFNDKVLEDTDVL” here?
The value was “not soluble”.

For “MKYQVLLYYKYTTIEDPEAFAKEHLAFCKSLNLKGRILVATEGINGTLSGTVEETEKYMEAMQADERFKDTFFKIDPAEEMAFRKMFVRPRSELVALNLEEDVDPLETTGKYLEPAEFKEALLDEDTVVIDARNDYEYDLGHFRGAVRPDIRSFRELPQWIRENKEKFMDKKIVTYCTGGIRCEKFSGWLLKEGFEDVAQLHGGIANYGKNPETRGELWDGKMYVFDDRISVEINHVDKKVIGKDWFDGTPCERYINCANPECNRQILTSEENEHKHLGGCSLECSQHPANRYVKKHNLTEAEVAERLALLEAVEVLEHHHHHH”, which “soluble on expression in E. coli” value is on record?
The value was “soluble”.

With “MTSTSRPPARGSENNGSGGSDGSGSGEDKVKGPTDKELEDAVNKLVEVAKKKAQEEADQARRSVEGKKSFEGDVLEYPYTREEVTKMIEDGAKEIKERFAAVYTPKPDDFDTMISRMQQVEAVLGAYEPSKNTTKETPVIGGGGDLELLRTSVSDMSDWQGKLKNAFVDNYLTPFPRITVTQGGLARFLRHQAEWMQAIYKRRRYDAKKTADQGVEAIEAIDDSKGSEAAIALAAIIGLATLLGPMGSSLAFGLGTSAVVAGTGIGAEFIEEDKEVPLGADTVQGVIDNVYKALEESDKTMVEEEGKVLDALKQIEGVVYPLVMGPDIDKGTELTPMRPAIVDTMDVEELKDGITVYDRHPGGS” as the sequence, how does the “soluble on expression in E. coli” value read?
The value was “not soluble”.

With “MKKYDVIVVGAGISGLLAALTLSKHGKKVLVLEKGQHLGGNCNSYIVDGYQVDTGAHAITHLIEGPLPRLMDNYFDFLPVFEDYGYYYVRTENALIKVPSNLKDFVTFDVLPRKDRLILSQTLTKALTLSSFGIDLSDQSVYDFLPKNLCKDTYDFVNTISAFLSGKSMKETSAQRILSGSSFVRDSITQEQFDAMIGKFEPKKRQSTESILSSILPYHLHASLQARVDKVAQPFTSLERLATNKVNYSQGYPRKGLKALLNAILYSFPDTVEIKSECEVTGILVESEKVYGVEADEIYLADLIIYTGFATDLPELIKDLPQAYIEELKGIVHTKSLTIWLGLKEELPEFKYTGSEIWFKDFAYWAMPISNYDPSLAPKDKQLVGFSFVIDSEQTEEHELKKAYDTIFRALPNIEKYIDMQHEQIMIPEKAAVTINGKFSDIRTPVKNLYIAGTDTDRRSMGITRAAYSIIELLKILNEDGNLHLEHHHHHH” as the sequence, how does the “soluble on expression in E. coli” value read?
Its value is “not soluble”.

For “MAHRTFRLCRLRIRRLRDHPLRQDGMVDYSTTATTNTLYLLHTGHHVPPPPSHRNPPFSFRSFRPPIQPCSPNSHHVDNVIILASAIK”, which “soluble on expression in E. coli” value is on record?
The value was “not soluble”.

With “DMPRPTGLAADIRWTAYGVPHIRAKDERGLGYGIGYAYARDNACLLAEEIVTARGERARYFGSEGKSSAELDNLPSDIFYAWLNQPEALQAFWQAQTPAVRQLLEGYAAGFNRFLREADGKTTSCLGQPWLRAIATDDLLRLTRRLLVEGGVGQFADALVAAAPPGAEKV” as the sequence, how does the “soluble on expression in E. coli” value read?
Its value is “soluble”.

For “MGSDKIHHHHHHMIMLEKPTCRPNNPNFSSGPCSKRPGWTLEVLKNALVGRSHRSREAALRLAEIVDLTREVLEVPSDYRIGIVPASDTGAVEMSLWSLLGERGVDMAAWESFGSGWITDVVEKLKLSDVRRFEAPYGELPDLTQMDFDRDVVFTWNGTTSGVRIPNADFIPERRAGLTICDATSAAFAQNLDFSKLDVVTFSWQKVLGGEAAHGMLILSPRAVERLESYVPTWPMPQIFCLTKDGKLNENIFKGVTINTPSLLCIEDFLDALKWAKAQGGLHALMARVEKNFAVLDAFVRKTPWLEYLAKDPQVRSNTSVCLDIVDPVVTALDTEKRVSFIKAIVNRLDEEEAAYDIGSYRDAPPGLRIWTGITIEASDLEILTSWLEWAFQVEKAQL”, which “soluble on expression in E. coli” value is on record?
Its value is “not soluble”.

With “HRRNATSLQLSRCANIADRTGLDALGGRRHSRRCPPPQRGLAAIKPLRQHRRRPVRSHIGGNQFADLPHQVDAFVHGKTDAVMLQPRQHAAKRGLRSIVRHFFIRQYRSLIIKRRAHTPGIRQLYRIAHCLRRPVLCGEPFYGFLFESNPLRLIEAV” as the sequence, how does the “soluble on expression in E. coli” value read?
The value was “not soluble”.

With “MPPVCGRRCSRTGEIRGYSGSIVRRWKRVETRDGPRFRSSLAPHEAALLKNLAGAMIGLLDDRDSSSPSDELEEITGIKTGHAQRPGDPTLRRLLPDFYRPDDLDDDDPTAVDGSESFNAALRSLHEPEIIDAKRVAAQQLLDTVPDNGGRLELTESDANAWIAAVNDLRLALGVMLEIGPRGPERLPGNHPLAAHFNVYQWLTVLQEYLVLVLMGSR” as the sequence, how does the “soluble on expression in E. coli” value read?
Its value is “not soluble”.

For “MSKCPTVRARAIDCKQGAVRAVRYNVDGNYCVTCGSDKTVKLWNPLKSSLLKTYSGTGNEVLDAASSSDNSQIAAGGADRACTVFDVETGKQLRRWRTHGAQVNAVAFNEESSVVFSGSMDCTMQAFDCRSRSEKPIQIFNESTDGILSIDVNGHEIVAGSADGNYRVYSIRDGNMTVDYMGDSVNSVSFTPDSNCLLAGVMGGIVRLIDKSSGKLLASYKGHQNTEYKLDCRVLQSIEHVASGSEDGFVYVYSLLDSHIVSKLEHPSKVIHSLTAHPKKERLMTAAGQMIYLWVAEDDAEVLGE”, which “soluble on expression in E. coli” value is on record?
The value was “not soluble”.

For “MLDGLTYAYGDLIEKVPDFEIIQRKSPKSGKVALVSGGGSGHKPAHAGFVGEGMLSAAVCGAIFTSPTPDQIYEAIKSADEGAGVLLIIKNYLGDVMNFEMAREMAEMEEIKVEQIIVDDDIAVENSLYTQGRRGVAGTVLVHKILGAAAHQEASLDEIKDLADKVVKNIKTIGLALSAATVPEVGKPGFVLDDNEIEYGVGIHSEPGYRREKMKTSYELATELVGKLKEEFKFEAGQKYGILVNGMGATPLMEQFIFMNDVAKLLTEENIEILFKKVGNYMTSIDMAGLSLTMIKLEDDQWLKNLNEDVKTISWGLEHHHHHH”, which “soluble on expression in E. coli” value is on record?
The value was “not soluble”.

With “MTRAILFDLDGTLVDTRAASWQLFSETNLAFALGIDSREAFFRAFEGNFFESLAKLCPDPQRAAAVKAHFMELLRTRYHPALIPGMVDVVRALAPHSTLAVISTNGIEAIRRILVGADLANCFSHVFSGDVEPRKAVSIRRFLGDHRYAVHRACSPAYHDGEASHASLQAQDVVLVTDTVGDVREAREAGIRAIGVTWGMHSERQLLDAGAERVALWPQELVAWLRDADAPATSCGCSSGSADSCALPPAPAPAVRAAAAPPTGDPVREVARHRRERQLHTRLQAAAATAPAAPGASMASAASGPSARTELMSSLQRILREGDH” as the sequence, how does the “soluble on expression in E. coli” value read?
The value was “not soluble”.

With “MSLGVKVDESFCLSDRDHIRKRPNMYVGSVNREAHERFIMGKFRKVEYVEGLVKIINEILDNSIDEAIRTDFKFANRIEVKIDHNLVTISDNGRGIPQDDVRTPEGKIVPKPVAAWTMAKSGSNFDDENRVTMGMNGVGSFLTNCYSSIFIGETSNGKRKVTINCTDGAQNMDYRTSPTKEQGTTVKFTPDFSIFGVDGIDEETKEVIKDRLMALAVAFPSVKFTYNGETLPNKFAMYGAMYGDSTITQTNNKISFILASTEDGFKQKSFVNGLDTKNGGVHVDCMIDGIYAELEPMIKKKHAIEIPKARVKECLTLVVFLHNFNAPAFDSQTKEKLTNTAGEFNNHAGLNYKKIAKQIMDTSEIITPIIESALIRKQAAEAAAITKEGHHHHHH” as the sequence, how does the “soluble on expression in E. coli” value read?
Its value is “soluble”.

For “MIILEKEQKEPNRLIKEKSPYLLQHAYNPVDWYPWGEEAFEKARKENKPVFLSIGYSTCHWCHMMAHESFEDEEVAGLMNEAFVSIKVDREERPDIDNIYMTVCQIILGRGGWPLNIIMTPGKKPFFAGTYIPKNTRFNQIGMLELVPRIKEIWEQQHEEVLDSAEKI”, which “soluble on expression in E. coli” value is on record?
Its value is “not soluble”.

Which “soluble on expression in E. coli” value does the source give for “MSELSQLSPQPLWDIFAKICSIPHPSYHEEQLAEYIVGWAKEKGFHVERDQVGNILIRQPATAGMENRKPVVLQAHLDMVPQKNNDTVHDFTKDPIQPYIDGEWVKARGTTLGADNGIGMASALAVLADENVVHGPLEVLLTMTEEAGMDGAFGLQSNWLQADILINTDSEEEGEIYMGCAGGIDFTSNLHLDREAVPAGFETFKLTLKGLKGGHSGGEIHVGLGNANKLLVRFLAGHAEELDLRLIDFNGGTLRNAIPREAFATIAVAADKVDALKSLVNTYQEILKNELAEKEKNLALLLDSVANDKAALIAKSRDTFIRLLNATPNGVIRNSDVAKGVVETSLNVGVVTMTDNNVEIHCLIRSLIDSGKDYVVSMLDSLGKLAGAKTEAKGAYPGWQPDANSPVMHLVRETYQRLFNKTPNIQIIHAGLECGLFKKPYPEMDMVSIGPTITGPHSPDEQVHIESVGHYWTLLTELLKEIPAK” here?
The value was “not soluble”.

Which “soluble on expression in E. coli” value does the source give for “MGSDKIHHHHHHMKNVVTDPEKVTRILKTATEIFGQQGFIKSKTDQIANQAQVSKGLLFHYFGNKQALYLDAFKYAYHRIYDHMDPKKWQNAPGLAAMMTTAVKYELKLQFKFPAEYRLMMQAYADLPHFPEPLRQQVQQETTAISAEADRIFREKIEQLPRREGLSVDDVFGVVSALIAQQTAVTTRLIASGHYRKFEDLQSVVETMARQLLIVEHGFLPDES” here?
Its value is “not soluble”.

With “MAGDPMVRLNVKPTRMELNNLKERLTTAERGHKLLKDKRDELMRRFISLIRENNQLRKEVESYLIDNLKSFAVAKSLKNSQMVEELFSIPSKEIELFVEKENIMSVTVPRMHMNITSQNENSEYSYLSSNSEMDDVFATMNSLIYKLLRLAEVEKTCQLMADEIEKTRRRVNGLEYSIIPNLSETIHYIELKLEEAERANLVRIMKVKLEHHHHHH” as the sequence, how does the “soluble on expression in E. coli” value read?
The value was “not soluble”.

With “MSPPLVIKNGTVVNEDGMFKADVLVRNGIIVEVSPNITALPDTEVIDATDRLVIPGGIDPHTHMQMPYMGEVTKDDFLKGTEAAVAGGTTMIIDFCCPDHRNGESLIAGYNRWRSWADPKVCCDYGLSVAITMWRPETAEQMAIITSPEFGVNSFKFYMAYENTLMVRDDELFRGMQECAKLRALARVHCENGSVIKEKEIDLLAKGVTGPEGHTQSRPEEIEAEATNRACVLAAQANCPVYIVHVMTKGAASAISHHRAQGSIVFGEPIAAGLALDGSHYYNEDWLHAARYVMSPPLSRDPTTPELLMKLLAAGELHLTGTDNCTYDCRQKSLGKGNFTKIPNGINGVEDRMSVVWEKGVHSGIIDPMRYVSITSSTAAKIFNIYPRKGRIAVGSDADIVIFNPNATRTISKDTHHHNLDFNIFEGINCHGVAEVTISRGRIVWAHGKLQTVPGSGKFIPLLANSPFVFSTHEKREQKIQPRIVERLE” as the sequence, how does the “soluble on expression in E. coli” value read?
Its value is “not soluble”.

With “GIIEAHCHVGIQEEKRGFEGNDCNEMTNPVTPYLRALDGINPMDSAFYTALTAGITGIMVGPGSANVVGGQWMFLKTYGRAIDKMVVLQPSAMKIAFGENPKANYDKKNMMPSTRIAIAAMLREELFEAQQYYEKRKNAEKSGDSFNKEFRKECWVPVFDKKIPLKAHVHRADDILTAIRIAKEFNLNLTLDHCTEGHLVAKEIKESGFPAIVGPTLTSRNKIETQYADFKTAGILHNEGVKVAITTDHPVTRIQDLLICAGLAAKEGLGIEEGLKAITINPAEICNVANRVGSIEVNKDADIAIFDGNPMETFTKTMYTIINGEIVY” as the sequence, how does the “soluble on expression in E. coli” value read?
The value was “not soluble”.
